{"source": "paper PMC3601411", "origin": "cited, not measured here", "molecular_target": "Fibrinogen gamma chain C-terminal region (Homo sapiens) (UniProt P02679)", "assay": "isothermal calorimetry", "data": [{"substance": "Clumping factor A (ClfA) 229-545 (from UniProt Q2G015)", "values": [{"measurement": "Kd", "result": 657, "unit": "nM"}]}]}
